Laboratory results as given in patent publication US20240083999A1 (TRUSTEES OF TUFTS COLLEGE, published 2024).

Assays:
[1] = molecular target: T1, human interleukin 6 (hIL-6) (human, UniProt P05231 30-212); assay: cell-based or functional assay
[2] = molecular target: T1, human interleukin 6 (hIL-6); assay: dilution ELISA, plate-coated hIL-6
From the text: Based on sequence analysis, five clonally-independent families of the anti-hIL-6 VHHs, i.e., having sequence homology derived from independent B cell origins, were obtained. One family represented the majority of VHH family members that strongly bound to hIL-6 as determined by ELISA; therefore, multiple variants of this family were also sequenced. The anti-hIL-6 VHH coding DNA of selected VHHs was re-cloned into E. coli expression vectors and the anti-hIL-6 VHH proteins were expressed and purified using standard methods. The purified anti-hIL-6 VHHs were subjected to dilution ELISA analysis to assess their apparent affinities for binding to hIL-6. […] (See, e.g., Mukherjee, J., et al., 2012 PLoS ONE, 7, e299411). The EC₅₀ value of JYK-D12 for binding hTL-6 as determined by ELISA was about 0.4 nM.
Maxisorp ELISA plates (Nunc; Thermo Fisher USA) coated with recombinantly produced hIL-6 protein (0.5-5 μg/ml) overnight at 4° C. were used for immuno-binding assays (ELISA). Plates were washed 3 times with 1×PBS+0.1% Tween, followed by washing 3 times with 1×PBS. Washed plates were blocked (4-5% non-fat dry milk in 1×PBS+0.1% Tween) for 1 hour at room temperature (RT) with rocking. Serially diluted (1:5) hIL-6 VHH binding molecules targeting hIL-6, diluted in blocking solution, were incubated for 1 hour at RT with rocking and washed as above. […]

[3] = molecular target: T2, mouse interleukin 6 (mIL-6) (mouse, UniProt P08505 25-211); assay: told from an in vivo STAT3 phosphorylation Western blot (FIG. 7), not a direct binding assay
T2 construct: the whole entry is named; also called mouse IL-6; mouse IL6
T2 sequence: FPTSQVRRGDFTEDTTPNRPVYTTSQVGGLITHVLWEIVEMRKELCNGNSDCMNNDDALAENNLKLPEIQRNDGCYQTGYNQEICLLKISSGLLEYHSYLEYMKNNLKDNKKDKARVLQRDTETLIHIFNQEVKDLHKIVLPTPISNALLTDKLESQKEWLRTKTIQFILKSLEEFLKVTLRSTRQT
Protocol: Experiments were conducted to determine whether the representative anti-hIL-6 VHH antibody cross-reacted with mouse IL-6 in vivo. In this experiment, one group of C57BL/6 mice was injected intraperitoneally with 1 μg of mouse IL-6 (mIL-6) in PBS; another group of C57BL/6 mice was injected with 1 μg of mouse IL-6 (mIL-6) plus 0.4 μg anti-hIL-6 VHH antibody. The animals were euthanized 30 minutes post-injection; their livers were isolated; and protein was extracted. Western blot analyses were carried out to assess the phosphorylation of STAT3 using P-STAT3 Y705 antibody (1:1,000 dilution) and STAT3 antibody (1:2,000 dilution), (Cell Signaling Technology (CST), Danvers, MA). The results of the Western blot analysis to assess the cross-reactivity of the anti-hIL-6 VHH antibody in mIL-6-induced hepatic STAT activation are shown in FIG. 7.

Binder | complete neutralization, 7TD1 cell proliferation (neutralization) assay [1] [µg/mL] | other results
hIL-6-binding VHH JYK-D12 (Trx/JYK-D12/E) (VHH, Expressed in E. coli as Trx/VHH/E fusion; also called JYK-D12 sh.ab1; expression vector JYR-3; not shown: Trx fusion partner of the construct Trx/JYK-D12/E) VHH: QLQLVESGGGLVQPGGSLGLSCAASGFTLAYYGIGWFRQAPGKEREGVACISSSDLSTYYADSVKGRFTISRDNAKDTVYLQMNSLKPEDTAVYYCAAGTWDLKFGYSRSNCVRSYEYDYWGQGTQVTVSS | 0.0009 | ED50, 7TD1 cell proliferation (neutralization) assay [1]: < 0.3 ng/mL; EC50 [2]: ~0.4 nM
JYK-D12/JYK-D12 homodimer (VHH, One polypeptide with two JYK-D12 units; also called VCR-108) QVQLVESGGGLVQPGGSLGLSCAASGFTLAYYGIGWFRQAPGKEREGVACISSSDLSTYYADSVKGRFTISRDNAKDTVYLQMNSLKPEDTAVYYCAAGTWDLKFGYSRSNCVRSYEYDYWGQGTQVTVSSGGGGSGGGGSGGGGSQVQLVESGGGLVQPGGSLGLSCAASGFTLAYYGIGWFRQAPGKEREGVACISSSDLSTYYADSVKGRFTISRDNAKDTVYLQMNSLKPEDTAVYYCAAGTWDLKFGYSRSNCVRSYEYDYWGQGTQVTVSS | – | effective dose against Tocilizumab, in vivo neutralization assay [1]: 1000 fold; binding result [3]: binds
hIL-6-binding VHH JYK-H9 (Trx/JYK-H9/E) (VHH, not shown: large carriers) VHH: QLQLVETGGGLVQPGGSLRLSCAASGFTLDYYAIGWFRQAPGKEREGVSCLSSSDRSTYYVDSVKGRFTISRDDDKNTAYLQMNSLKPEDTATYYCAAGTWDLKWGYNISACVGSYEYDYWGQGTQVTVSS | 0.0027 | –
hIL-6-binding VHH JYK-A9 (Trx/JYK-A9/E) (VHH, not shown: large carriers) VHH: QVQLVESGGGLVQAGDSLTLSCAASGRPFSSFAMGWFRQAPGKEREFVAAITWSRGTTHYADSVKGRFTISGDNAKNTVFLQMNSLKPEDTAVYYCAAADGWKVVSTASPAYDYWGQGTQVTVSS | 2 | –
hIL-6-binding VHH JYK-A1 (Trx/JYK-A1/E) (VHH, not shown: large carriers) VHH: QLQLAETGGGLVQPGGSLRLSCAASGFTLDYYAVGWFRQAPGKEREGISCISSSDLKTYYADSVKGRFTISRDYAKSTVSLQMNSLKPEDTGVYYCAAGTWDLKFGYNISACVGSYEYDYWDQGTQVTVSS | 0.0247 | –
